Data on 1 molecule can be found in publication PMC10831263.

The target in this assay is T1, his-tagged NCOA4 (383–522nd) recombinant protein, WT (human), Q13772.
T1 chain: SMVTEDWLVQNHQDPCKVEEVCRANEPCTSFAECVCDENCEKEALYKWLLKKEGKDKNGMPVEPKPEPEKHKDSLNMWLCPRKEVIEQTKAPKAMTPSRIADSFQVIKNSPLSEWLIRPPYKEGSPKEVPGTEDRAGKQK
The assay is described as follows: nonreducing gel electrophoresis; purified his-tagged NCOA4 (383–522nd) WT or mutants on a nonreducing gel, with or without β-ME (10 mM) or DTT (5 mM); the reductants converted the dimer into monomers. To be noted: remark: other sources report otherwise.

B1: his-tagged NCOA4 (383–522nd) recombinant protein, WT, Q13772-1 383-522 (domain or fragment)
chain: SMVTEDWLVQNHQDPCKVEEVCRANEPCTSFAECVCDENCEKEALYKWLLKKEGKDKNGMPVEPKPEPEKHKDSLNMWLCPRKEVIEQTKAPKAMTPSRIADSFQVIKNSPLSEWLIRPPYKEGSPKEVPGTEDRAGKQK
For the molecule B1, the stoichiometry N came out at 2.
